According to the supplement of paper PMC10567573:

B1: RSAD1 (parent)
chain: YCNFNKYIPRRLEEAAMQKCLVTE
B2: GLTSCR2 (parent)
chain: LARRRRRRQARREAEADKPRRLGR

Variants of: B1
Assay: protein stability index of a GFP-peptide fusion (GPS, HEK-293T) (PSI 1-6); higher = more stable
Conditions: c terminus: a fixed tail appended
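Further: lentivirally expressed fusions sorted by FACS into six bins by GFP to DsRed ratio, PSI derived from sequencing read proportions per bin multiplied by bin number.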

Protein stability index: each site, then its substitutions
L12: T 2; N 3.28; S 2.45; E 2.46; R 2.41; V 2.74; D 2.19; H 2.52; M 2.83; C 1.96; K 2.42; W 4.96; Y 3.24; Q 4; I 2.98; F 2.15; G 2.96; P 2.95
Y7: E 3.1; C 2.52; F 3.98; V 3.01; I 2.02; K 2.42; T 2.22; D 2.49; N 2.58; G 2.18; R 2.31; A 2.11; L 2; Q 1.8; M 1.79; S 2.51; H 2.68; P 2.42
N5: K 2.28; H 2.31; V 1.19; P 2.07; W 2.15; D 1.49; Y 2.75; Q 2.18; L 3.04; R 2.48; M 2.72; A 1.68; S 3.3; T 2.59; F 1.25; I 2.17; G 2.91
E13: F 2.34; Q 1.93; D 3.69; W 2.49; L 2.16; H 3.29; Y 1.88; R 2.19; N 3.29; S 1.46; A 2.63; K 1.82; I 1.66; T 2.55; C 1.99; P 3.17; M 2.56; G 2.11
P9: E 3.05; S 2.52; G 2.12; W 2.6; T 1.79; C 3.11; M 1.4; A 2.11; R 1.37; D 2.38; I 2.85; Y 2.48; V 2.71; L 2.28; N 1.82; H 2.14; K 1.73; Q 1.54
K6: G 3.22; N 2.56; I 2.52; E 3.37; H 3.4; Q 1.5; R 1.7; F 3.19; W 2.56; A 2.11; S 2.19; Y 3.05; L 2.58; T 2.79; M 3.03; D 2.9; C 1.43; P 2.21; V 3.4
E14: G 3; C 2.27; Y 1.33; A 3.07; R 2.33; I 2.32; P 2.92; N 3.14; S 2.5; F 2.31; K 1.58; L 2.34; W 1.96; V 3.05; D 2.71; T 2.09; M 3.14; H 1.65; Q 2.85
R10: H 1.94; Y 2.26; L 2.63; K 1.64; D 1.92; A 1.91; W 3.64; E 1.26; N 2.33; I 2.39; Q 1.96; F 2.22; S 1.48; T 1.59; C 3.8; M 2.53; G 1.24; P 1.74
Y1: H 2.94; C 1.97; L 2.72; N 2.58; A 2.31; E 2.49; R 1.96; M 2.32; I 2.76; F 1.68; D 2.47; P 2.27; W 2.65; T 2.38; V 1.99; G 1.89; S 2.46; K 2.63; Q 3.07
N3: F 2.4; R 1.66; T 2.6; M 2.24; Q 2.04; S 1.84; C 1.95; H 2.74; E 1.99; W 1.96; G 2.94; L 1.66; P 2.03; K 1.84; V 1.85; A 2.13; Y 1.63; I 1.61
A16: D 2.54; C 3.34; F 1.74
I8: A 1.69; F 2.48; E 2.03; G 1.22; K 1.71; T 1.96; V 1.09; Q 1.61; L 2.05; P 1.83; M 1.85; W 2.26; H 2.58; D 2.3; Y 1.5; R 1.67; N 1.68; S 2.37
A15: C 1.83; P 2.85; V 3.4; K 1.69; L 2.23; Y 2.61; T 3.34; D 2.55; I 1.56; M 2.14; F 2.02; Q 2.24; N 2.09; H 3.35; E 1.84; W 1.04
C2: H 3.01; E 2.98; I 1.76; W 1.82; R 2.42; T 2.2; D 2.88; S 1.84; G 2.48; K 2.31; Q 1.87; N 2.84; F 2.35; A 2.33; Y 1.89; M 2.31; P 1.44
R11: W 2.73; K 2.14; S 1.44; D 1.84; A 3.42; E 2.17; V 2.41; H 2.96; I 3.24; Q 1.67; F 3.01; G 2.64; Y 1.48; N 1.61; T 1.95; L 2.57; C 2.17
F4: E 2.07; S 2.8; C 1.94; T 2.61; G 2.66; M 2.35; P 2.82; H 1.21; R 1.95; W 2.56; N 2.49; I 1.67; Y 2.23; D 2.58; Q 2.76; L 2.08; V 3.15; K 2.26

Variants of: B2
Assay: as above
Conditions: c terminus: a fixed tail appended

Protein stability index of substitutions, site by site:
G23: F 4.44; L 4.18; Y 4.44; D 4.9; V 4.45; R 4.57; A 4.34; I 4.53; C 4.57; H 4.79; K 3.76; N 4.64; W 4.46; T 5.05; P 4.77; M 4.17; Q 4.51; E 4.68; S 5.18
R21: T 4.83; Y 4.94; V 4.67; W 3.64; Q 5.13; S 5.15
R24: C 4.44; E 4.12; T 4.6; W 3.84; L 4.58; P 4.67; G 4.79; Q 4.62; V 4.42; M 4.28; Y 4.8; K 4.67; D 5.02; A 4.72; S 4.85; H 4.8; F 4.3; N 4.28; I 4.47
L22: V 5.4; F 3.87; W 4.62; S 5.13; H 4.23; A 4.74; P 4.15; M 4.74; C 4.53; N 4.62; G 4.3; E 5.15; I 4.7; Y 4.35; R 5.04; T 4.74; K 4.71; D 5.31; Q 4.87
